Measurements as given in article PMC10164081.

Columns and labels:
Gαolf (human) = Gαolf (human) (UniProt P38405)
[1] = target: purified Ric-8B (peptide-binding thermal shift assay) (mouse) (UniProt Q80XE1); assay: differential scanning fluorimetry
Chain of purified Ric-8B (peptide-binding thermal shift assay) (mouse) (Q80XE1 1-483): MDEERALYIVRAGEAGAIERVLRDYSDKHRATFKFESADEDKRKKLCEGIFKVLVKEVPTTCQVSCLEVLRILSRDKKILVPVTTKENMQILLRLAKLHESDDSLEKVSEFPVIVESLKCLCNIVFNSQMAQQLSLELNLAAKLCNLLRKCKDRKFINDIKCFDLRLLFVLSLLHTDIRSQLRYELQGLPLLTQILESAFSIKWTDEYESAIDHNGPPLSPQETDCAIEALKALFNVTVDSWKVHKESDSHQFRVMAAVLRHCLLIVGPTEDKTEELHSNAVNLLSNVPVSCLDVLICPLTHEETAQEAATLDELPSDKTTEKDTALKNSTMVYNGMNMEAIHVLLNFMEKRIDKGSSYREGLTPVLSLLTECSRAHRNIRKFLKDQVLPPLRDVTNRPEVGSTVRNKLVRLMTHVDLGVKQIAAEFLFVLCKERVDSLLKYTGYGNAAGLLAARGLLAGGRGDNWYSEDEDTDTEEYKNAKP

Chain of Gαolf (human) (P38405 whole entry): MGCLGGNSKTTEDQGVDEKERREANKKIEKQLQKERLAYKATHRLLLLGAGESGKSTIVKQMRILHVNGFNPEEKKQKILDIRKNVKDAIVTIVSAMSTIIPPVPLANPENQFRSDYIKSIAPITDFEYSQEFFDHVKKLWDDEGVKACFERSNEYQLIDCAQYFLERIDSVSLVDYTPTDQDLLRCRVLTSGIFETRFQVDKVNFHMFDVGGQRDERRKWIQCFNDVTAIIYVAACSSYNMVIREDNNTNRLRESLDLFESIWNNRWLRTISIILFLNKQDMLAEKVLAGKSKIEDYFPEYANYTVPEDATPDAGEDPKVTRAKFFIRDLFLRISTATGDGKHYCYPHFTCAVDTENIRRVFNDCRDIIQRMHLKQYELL

folding of the Gαolf-RLuc sensor (luminescence) in RIC-8B knockout HEK293T cells (Gαolf (human)) [% decrease] | maximal thermal shift (ΔTm) [1] [°C] | Substance
10 |  | Ric-8B with its ARM7 loop replaced by that of Ric-8A
 | 3.3 | Gαs C-term amidated peptide
